Tested on: Escherichia coli TOP10
Assay: shrunken log2 fold change of peptide-encoding DNA abundance (4.5 h post-induction vs induction); higher = less antimicrobial activity (less host growth inhibition)
Conditions: time post-induction: 4.5 h; library: site-saturation at positions 5, 18, 19, 20
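Note: peptides expressed intracellularly from a pBAD plasmid library in pooled LB shake-flask culture, induced with 0.3% L-arabinose, DNA abundance read by NGS, three biological replicates, DESeq2 with apeglm shrinkage.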

Compared with RRIRTRPPRLPRPRPRPRICPRP, RRIRTRPPRLPRPRPRPRIHPRP is higher in “shrunken log2 fold change” value: -0.201 for the first, 0.0773 for the second.

RRIRTRPPRLPRPRPRPRIVPRP and RRIRTRPPRLPRPRPRPRKDPRP are within 0.2 log units of each other in “shrunken log2 fold change” value: -0.0873 for the first, -0.0522 for the second.

RRIRTRPPRLPRPRPRPRLLPRP and RRIRTRPPRLPRPRPRPRLQPRP are within 0.2 log units of each other in “shrunken log2 fold change” value: 0.0778 for the first, 0.123 for the second.

RRIRTRPPRLPRPRPRPRMPPRP and RRIRTRPPRLPRPRPRPRMVPRP are within 0.2 log units of each other in “shrunken log2 fold change” value: 0.199 for the first, 0.0186 for the second.

First: RRIRTRPPRLPRPRPRPRMWPRP
Second: RRIRTRPPRLPRPRPRPRNIPRP
The “shrunken log2 fold change” value of the first is higher: 0.227 for the first, -0.623 for the second.

Going from RRIRTRPPRLPRPRPRPRPVPRP to RRIRTRPPRLPRPRPRPRPWPRP, the “shrunken log2 fold change” value falls from 0.407 to 0.0956.

RRIRTRPPRLPRPRPRPRQGPRP and RRIRTRPPRLPRPRPRPRQSPRP are within 0.2 log units of each other in “shrunken log2 fold change” value: 0.337 for the first, 0.159 for the second.

RRIRTRPPRLPRPRPRPRQVPRP and RRIRTRPPRLPRPRPRPRRKPRP are within 0.2 log units of each other in “shrunken log2 fold change” value: -0.0471 for the first, 0.0652 for the second.

Compared with RRIRTRPPRLPRPRPRPRSCPRP, RRIRTRPPRLPRPRPRPRTAPRP is higher in “shrunken log2 fold change” value: 0.423 for the first, 2.87 for the second.

First: RRIRTRPPRLPRPRPRPRTRPRP
Second: RRIRTRPPRLPRPRPRPRVVPRP
The “shrunken log2 fold change” value of the first is lower: 0.204 for the first, 1.87 for the second.

RRIRTRPPRLPRPRPRPRWLPRP and RRIRTRPPRLPRPRPRPRWRPRP are within 0.2 log units of each other in “shrunken log2 fold change” value: 0.369 for the first, 0.483 for the second.

Going from RRIRTRPPRLPRPRPRPSCGPRP to RRIRTRPPRLPRPRPRPSCTPRP, the “shrunken log2 fold change” value falls from -0.0561 to -0.643.

First: RRIRTRPPRLPRPRPRPSDCPRP
Second: RRIRTRPPRLPRPRPRPSDHPRP
The “shrunken log2 fold change” value of the first is higher: 0.131 for the first, -0.274 for the second.

First: RRIRTRPPRLPRPRPRPSDMPRP
Second: RRIRTRPPRLPRPRPRPSGDPRP
The “shrunken log2 fold change” value of the first is higher: 0.185 for the first, -0.221 for the second.

RRIRTRPPRLPRPRPRPSGTPRP and RRIRTRPPRLPRPRPRPSHGPRP are within 0.2 log units of each other in “shrunken log2 fold change” value: -0.0272 for the first, 0.0388 for the second.

Compared with RRIRTRPPRLPRPRPRPSIFPRP, RRIRTRPPRLPRPRPRPSIQPRP is lower in “shrunken log2 fold change” value: -0.122 for the first, -0.865 for the second.

First: RRIRTRPPRLPRPRPRPSLRPRP
Second: RRIRTRPPRLPRPRPRPSLYPRP
The “shrunken log2 fold change” value of the first is higher: -0.294 for the first, -0.522 for the second.

Compared with RRIRTRPPRLPRPRPRPSMQPRP, RRIRTRPPRLPRPRPRPSPTPRP is higher in “shrunken log2 fold change” value: -0.244 for the first, 0.0477 for the second.

First: RRIRTRPPRLPRPRPRPSPVPRP
Second: RRIRTRPPRLPRPRPRPSQYPRP
The “shrunken log2 fold change” value of the first is higher: 0.0854 for the first, -0.142 for the second.

First: RRIRTRPPRLPRPRPRPSRRPRP
Second: RRIRTRPPRLPRPRPRPSSRPRP
The “shrunken log2 fold change” value of the first is lower: 0.128 for the first, 0.543 for the second.

RRIRTRPPRLPRPRPRPSTTPRP and RRIRTRPPRLPRPRPRPSVHPRP are within 0.2 log units of each other in “shrunken log2 fold change” value: -0.0853 for the first, -0.237 for the second.

First: RRIRTRPPRLPRPRPRPSVVPRP
Second: RRIRTRPPRLPRPRPRPSYNPRP
The “shrunken log2 fold change” value of the first is higher: -0.384 for the first, -0.591 for the second.

RRIRTRPPRLPRPRPRPTARPRP and RRIRTRPPRLPRPRPRPTCDPRP are within 0.2 log units of each other in “shrunken log2 fold change” value: 0.0618 for the first, 0.0699 for the second.

First: RRIRTRPPRLPRPRPRPTGLPRP
Second: RRIRTRPPRLPRPRPRPTHWPRP
The “shrunken log2 fold change” value of the first is lower: -0.0841 for the first, 0.987 for the second.

First: RRIRTRPPRLPRPRPRPTLYPRP
Second: RRIRTRPPRLPRPRPRPTMCPRP
The “shrunken log2 fold change” value of the first is higher: -0.102 for the first, -0.416 for the second.

First: RRIRTRPPRLPRPRPRPTNDPRP
Second: RRIRTRPPRLPRPRPRPTPTPRP
The “shrunken log2 fold change” value of the first is lower: -0.547 for the first, 0.289 for the second.

Going from RRIRTRPPRLPRPRPRPTQAPRP to RRIRTRPPRLPRPRPRPTRGPRP, the “shrunken log2 fold change” value rises from 0.111 to 0.705.

RRIRTRPPRLPRPRPRPTSEPRP and RRIRTRPPRLPRPRPRPTTCPRP are within 0.2 log units of each other in “shrunken log2 fold change” value: -0.126 for the first, -0.00487 for the second.

Going from RRIRTRPPRLPRPRPRPTTMPRP to RRIRTRPPRLPRPRPRPTVAPRP, the “shrunken log2 fold change” value rises from -0.109 to 0.22.

RRIRTRPPRLPRPRPRPTVGPRP and RRIRTRPPRLPRPRPRPTVYPRP are within 0.2 log units of each other in “shrunken log2 fold change” value: 0.155 for the first, -0.0364 for the second.

First: RRIRTRPPRLPRPRPRPTWPPRP
Second: RRIRTRPPRLPRPRPRPTWVPRP
The “shrunken log2 fold change” value of the first is higher: 0.439 for the first, 0.149 for the second.

RRIRTRPPRLPRPRPRPTWYPRP and RRIRTRPPRLPRPRPRPTYWPRP are within 0.2 log units of each other in “shrunken log2 fold change” value: -0.0546 for the first, -0.00518 for the second.

Going from RRIRTRPPRLPRPRPRPTYYPRP to RRIRTRPPRLPRPRPRPVAGPRP, the “shrunken log2 fold change” value rises from -0.359 to -0.0116.

RRIRTRPPRLPRPRPRPVALPRP and RRIRTRPPRLPRPRPRPVAWPRP are within 0.2 log units of each other in “shrunken log2 fold change” value: 0.0946 for the first, 0.217 for the second.

Going from RRIRTRPPRLPRPRPRPVCNPRP to RRIRTRPPRLPRPRPRPVEPPRP, the “shrunken log2 fold change” value rises from -0.345 to 0.00744.

Going from RRIRTRPPRLPRPRPRPVGRPRP to RRIRTRPPRLPRPRPRPVGYPRP, the “shrunken log2 fold change” value rises from 0.129 to 0.35.

RRIRTRPPRLPRPRPRPVHCPRP and RRIRTRPPRLPRPRPRPVHMPRP are within 0.2 log units of each other in “shrunken log2 fold change” value: 0.0307 for the first, -0.123 for the second.

First: RRIRTRPPRLPRPRPRPVHVPRP
Second: RRIRTRPPRLPRPRPRPVIQPRP
The “shrunken log2 fold change” value of the first is higher: 0.039 for the first, -0.202 for the second.

RRIRTRPPRLPRPRPRPVITPRP and RRIRTRPPRLPRPRPRPVKGPRP are within 0.2 log units of each other in “shrunken log2 fold change” value: 0.0105 for the first, -0.0154 for the second.

RRIRTRPPRLPRPRPRPVKPPRP and RRIRTRPPRLPRPRPRPVKRPRP are within 0.2 log units of each other in “shrunken log2 fold change” value: 0.00237 for the first, 0.0411 for the second.

First: RRIRTRPPRLPRPRPRPVLWPRP
Second: RRIRTRPPRLPRPRPRPVMMPRP
The “shrunken log2 fold change” value of the first is higher: 0.117 for the first, -0.199 for the second.

First: RRIRTRPPRLPRPRPRPVPCPRP
Second: RRIRTRPPRLPRPRPRPVQKPRP
The “shrunken log2 fold change” value of the first is lower: -0.0501 for the first, 0.296 for the second.

RRIRTRPPRLPRPRPRPVSIPRP and RRIRTRPPRLPRPRPRPVTQPRP are within 0.2 log units of each other in “shrunken log2 fold change” value: -0.082 for the first, 0.0354 for the second.

RRIRTRPPRLPRPRPRPVTTPRP and RRIRTRPPRLPRPRPRPVVKPRP are within 0.2 log units of each other in “shrunken log2 fold change” value: -0.116 for the first, -0.189 for the second.

First: RRIRTRPPRLPRPRPRPVVRPRP
Second: RRIRTRPPRLPRPRPRPVYSPRP
The “shrunken log2 fold change” value of the first is higher: -0.00389 for the first, -0.239 for the second.

RRIRTRPPRLPRPRPRPWATPRP and RRIRTRPPRLPRPRPRPWEGPRP are within 0.2 log units of each other in “shrunken log2 fold change” value: -0.00422 for the first, 0.0154 for the second.

Compared with RRIRTRPPRLPRPRPRPWFGPRP, RRIRTRPPRLPRPRPRPWFMPRP is lower in “shrunken log2 fold change” value: 0.0864 for the first, -0.364 for the second.

First: RRIRTRPPRLPRPRPRPWFSPRP
Second: RRIRTRPPRLPRPRPRPWITPRP
The “shrunken log2 fold change” value of the first is lower: -0.152 for the first, 0.0633 for the second.

RRIRTRPPRLPRPRPRPWKQPRP and RRIRTRPPRLPRPRPRPWLHPRP are within 0.2 log units of each other in “shrunken log2 fold change” value: 0.0162 for the first, -0.166 for the second.

RRIRTRPPRLPRPRPRPWMHPRP and RRIRTRPPRLPRPRPRPWMWPRP are within 0.2 log units of each other in “shrunken log2 fold change” value: 0.032 for the first, 0.101 for the second.

RRIRTRPPRLPRPRPRPWNAPRP and RRIRTRPPRLPRPRPRPWNFPRP are within 0.2 log units of each other in “shrunken log2 fold change” value: -0.00214 for the first, -0.0511 for the second.

Going from RRIRTRPPRLPRPRPRPWPKPRP to RRIRTRPPRLPRPRPRPWPNPRP, the “shrunken log2 fold change” value falls from 0.218 to -0.124.

Going from RRIRTRPPRLPRPRPRPWPQPRP to RRIRTRPPRLPRPRPRPWQKPRP, the “shrunken log2 fold change” value falls from 0.323 to -0.1.

Compared with RRIRTRPPRLPRPRPRPWSPPRP, RRIRTRPPRLPRPRPRPWSTPRP is higher in “shrunken log2 fold change” value: -0.37 for the first, -0.14 for the second.

In the case of RRIRTRPPRLPRPRPRPWTPPRP, the “shrunken log2 fold change” value was -0.00155.

From the supplement of paper PMC9112550, “Optimization of the antimicrobial peptide Bac7 by deep mutational scanning” (BMC Biology, 2022)
